The nanobody polyreactivity screen of Harvey et al. (2022)

Experiment: yeast display, Sf9 membrane polyspecificity reagent, FACS + sequencing; frameworks hold sequencing errors
How it was run: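 Sorting gates, low and high (top ~1%), were placed on anti-HA fluorescence to track expression and on streptavidin fluorescence to track reagent binding. A clone's polyreactivity label is taken from the gate it came out of. The reagent was 10% biotinylated, detergent-solubilized Sf9 membrane, applied for 1 hour at 4 °C to galactose-induced yeast display cells.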

Sequence | polyreactivity (PSR sort gate)
QVQLVESGGGLVQAGGSLRLSCAAYGSIYSKYAMGWYRQAPGKEREMDAAISWSDGTTYYADSVKGLFTISRDNAKYTVYLQLNSLKPEDTAVYYCNTPPQWLGRYITITFDYWGQGSQVTVSS | low polyreactivity
QVQLVESGGGLVQAGGSLRLSCAASGSIFVGNAMGWDRQAPGKERELVATLSWSGGSTYYADSVKGRFTISRDNAKNTVDLQMNSLNPEDTAVYYCAKTPYRRYRYGGYTYRTYDYWGQGTQVTVSS | low polyreactivity
QVHLVESGGGLVQAGGSLRLSCAASGSTFDAYDMGWYRQAPGKERELVAAISSSGGSTYYADSVKGRFTISRDNAKNTVYLQMNSLKPEDTAVYYCAADWSVWDYDYWGQGTQVTVSS | low polyreactivity
QVQLVESGGGLVQAGGSLRLSCAASGRIFEINTMGWYRQAPGKERELVAAISRGGGSTYYADSVKGRFTISRDNAKNTVYLQMNSLKPEDTAVYYCAAASYYVEGDYWGQGTQVTVSS | low polyreactivity
QVQLVESGGGLVQAGGSLRLSCAASGILLFNAMGWYRQAHGKERELVAAINSGGSTNYADSVKGRFPISRDNAKNTGYLQMNSLKPEDTAVYYCAKDTPFTLRVWAEGGMDYWGQGTQVTVSS | low polyreactivity
QVQLVESGGGLVQAGGSLRLSCAASGSTYGIYAMGWYRQAPGKERELVAAITLRTDSTYYADSVKGRFTISRDNAKNTVYLQMNSLKPEVTAVYYCARRYRYGYDYWGQGTQVTVSS | low polyreactivity
QFQLVESGGGLVQAGGSLRLSCAASGRIFCRYAMGWYRQAPGKETELVPVISARGARTYYEDSVKGRFTISRDNAKYTVYLQMNSLKPEDTAVYYCNKVGVLSGYYYPHASGDYWGQGTQVTVSS | high polyreactivity
QVQLVESGGGLVQAGGSLRLSCAASGSIFDYYVMGWYRQAPGKERELVAAISWSGASTYYADSVKGRFTISRDNAKNTVYLHMNSLKPEDTAVYYCAADYGVNTLIDYDYWGQGTQVTVSS | low polyreactivity
QVQLVESGGGLVQAGGSLRLSCAASGSIFRTYAMGWYRQSPGKERELVAAITSDGSTYYADSVKGRFTISRDNAKNTVYLKMNRLKPEDTAVYYFAAASQEYDYHYYYWGQGTQVTVSS | low polyreactivity
QVQLLDSGGGLVQAGGSLRLSCAASGRTIYYYAMGWYRQAPGKEREFVAAIYWHGGSTYYAESVKGRFTISRDNAKNTVYFQMNSLKPEDTAVYYCAAERYDRVGFDYWGQGTQVTVSS | low polyreactivity
QVQLVESGGGLVQAGGSLRLSCASSGFSFLSYTMGWYRQAPGKERELVAAITSGGSTYYADSVKGRFTISRDNAKNTVYLQMNSLKPEDTAVYYCAVTYRWHTFIYDYWGQGTQVTVSS | low polyreactivity
QVQLVESGGGLVHAGGSLRLSCAASGRTFASYAIGWYRQAPGKERELVARISKSGGSTYYADSVKGRFTISRDNAKNTVYLQMNSLKPEDTAVYYCAATRYPYLYRSEVGSDYWGQGTQVTVSS | low polyreactivity
QVQLVESGGGLVQAGGSLRLSCAASGRIFRYYTMGWYTPAPGNERELVAAISSSGGRTYYADSVKGRFTISRDNAKNTVYLQMNSLKPEDTAVYYCNAYRRFSAFDYWGQGTQVTVTS | high polyreactivity
QVQLVESGGGLVQAGGSLRLSCAASGSIFIANAMGWYRQAPGKERELFAAITLNGGSTYYADSVKGRFTISRDNAKNTVYLQMNSLKPEDTAVYYCAADWVWVAPQYWIVEYDYRGQGTQVTVSS | low polyreactivity
QVQLVESGGGFVQAGGSLRLSSAASGRTFYFYTMLWYRQAPGKERELVAAISWSGGSTYYADSVKGRFTISRDNAKNTVYLQMNSLKPEDTAVYYCAASSPWDQSNDQFYYWGQGTQVTVSS | low polyreactivity
QVQLVESGGGLVQAGGSLRLSCAASRIFFNGYAMGWYRQAHGSERELVAAITVSGGRTFYADSVKGRFTISRDNAKNTVYLQMNSLKPEDTAVYYCNAVPRRVRLYDYWGQGTQVNVSS | high polyreactivity
QVQLVESGGGLVQAGGSLRLSCAASGITFQYYAMGWYRQAPGKERELVAAISSGGSTYYADSVKGRFTISRDNAKNTVYLQMNSLKPEDTAVYYCAAKRVFFGLNYDYWGQGTQVTVSS | high polyreactivity
QVQLVESGGGLVQAGGSLRLSCAASGRTFTTYAMGWYRQAPRKERELVASISRRGGSTYYADSVKGRFTISRDNAKNTVYLQMNSLKPEDTAVYYCNAGGVRKYGYWGQGTQVTVSS | high polyreactivity
QVQLVESGGGLVQAGGSLRLSCAASGRIFRSNAMGWYRQAPRKERELVAVITTAGSTNYADSVKGRFTISRDNAKNTVYLQMNSLKQEDTAVYYCATENGTRKRRYDYWGQGTQVTVSS | low polyreactivity
QVQLVESGGGLVQAGGSLRLSCAASGRIFKYYAMGWYRQAPGKERELVAAINRDGGRTYYADSVKGRFTISRDNAKNTVYLQMNRLKPDDTAVYYCAASYGYWGQGSQVTVSS | low polyreactivity
QVQLVESGGCLVQAVGSLRLSCAASAFTFTQYGRGWYRQASGKEREFVATIRFSGDTTYYADSVKRRFTITRDHAKNTAYLQMNRLKPEDPAVYYCNADNRAFFVYPGSNRYDSWGQGTQVTVSS | low polyreactivity
QVQLVESGGGLVQAGGSLRLSCAASGITFGYYAMGWYRQAPGKERELVAAISRTGSTTYYADSVKGRFTISRDNAKNTVYLQMNRLKPEDTAVYYCAARRWGTNGGGSPMYYWGQGTQVTVSS | high polyreactivity

Sequence | polyreactivity (PSR sort gate)
QVQLVESGGGLVQAGGSLRLSCAASGSIFPRNAMGWSRQAPGKERELVARINSGGTTKYADSVKGRFTISRDNAKNTVYLQMNSLKPEDTAVYYCNADTYILDPLRKSYGYDYWGQGTQVTVSS | low polyreactivity
QVQLVESGGGLVQAGGSLRLSCAASGRTFRYYAMGWYRQAPGKERELVAAISSGGNTYYADSVKGRFTISRDNAKNTVYLQMNSLKPEDTAVYYCAAKVHYSAHRFGYWGQGTQVTVSS | high polyreactivity
QVQLVESGGGLVQAGGSLRLSCAASGRIFWRNAMVWYRQAPGKERELVAAISGSGGSTSYADSVKGRFTISRDNAKNTVYLQMNSLKPEDTAVYYCAAKYYYNWHRQGYDYWGQGTQVTVSS | high polyreactivity
QVQLVESGGGLVQAGGSLRLSCAASGSIFYRNAMGWYRQAPGKERELVAAISSGTSTYYADSVKGRFTISRDNAKNTVYLQMNSLKPEDTAVYYCAKQYAFVPWWSRYHGELDYWGQGTQVTVSS | low polyreactivity
QVQLVETGGGLVQAGGSLRLSCAASGSIFWSNAMGWYRQAPGKERELVAAITSGGRTYYADSVKGRFTISRDNAKNTVYLQMNSLKPEDTAVYYCAAYWNSATGFDYWGQVTQVTVSS | high polyreactivity
QVQLVESGGGLVQAGGSLRLSCAASGSTFGVNAMGWYRQAPGTERELVADISVRTDSTYYADSVKGRVTISRDNAKNTVYLQMNSLKAEDTAVYYCNAGLGIEYDYWGQGTQVSVSS | low polyreactivity
QDQLVESGGGLVQAGGSLRLSCAASGPIFYPYVMGWYRQAPGKERELVAAISDSTGSTYYADSVKGRFTISRDNAKNTVYLQMNSLKPEDTAVYYWGQGTQVTVSS | low polyreactivity
QVQLVESGGGLVKAGGSLRLSCAASGFIFGYNAMGWDRQAPGKERELVAVITDSSDSTYYADSVKGRFTISRDNAMNTVYLQMNSLKPEDTAVYYCDTDYGYAGDYWGQGTQVTVSS | low polyreactivity
QVQLVESGGGLVQAGGSLRLSCAASGRIFFIYPMGWYRQAPGKERELVAGINRTGGSTYYADSVKGRFTISRDNAKNTVYLQMNSLKPEDTAVYYCAAVSYYASDYRYDYWGQGTQVTVSS | low polyreactivity
QVQLVESGGGLVQAGGSLRLRCAASGIIFYGNAMGWYRPAPGQERELVAAISRRSGSTYYADSVKGRFTISRDTAKNTVYLQMNSLKPEDTAVYYGNKRAANAVTINDMDYWGQGTQVTVSS | high polyreactivity
QVQLVESGGGLVQAGGSLRLSCAASGFTFGYNAMGWYRQAPGKERELVAAISWSGGTYYADSVKGRFTISRDNAKNTVYLQMNSLKPEDTAVYYCAAVVVYWTSQIYYDGYYYWGQGTQVTVSS | high polyreactivity
HVQLVESGGRLVQAGGSLRLSCAASGSIFVPNAMGWYRQAPGKERELVATISWSGGSTYADCVKGRFTISRDNAKNTVYLQMKSLKPEDTAVYYCNARRYDPGSRYDYWGQGTQVTVSS | low polyreactivity
QVQLVESGGGLVQAGGSLRLSFAASGLIVTGYAMGWYRQRPGKEREVVAAITSGGGTNYADSVKGRFTISRDNAKNTVDLQMNSLKPEDTAVYYCAVDFGHYYLYSITSYLWYWDGYDYWGQGTQVTVSS | low polyreactivity
QVQLVESGGGLVQAGGSLRLSCAASGSIFAANVMGWYRQAPGKERELVAVISGGGGRTFYADSVKGRFTISRDNAKNTVYLQMNSLKPEDTAVYYCAADRRDRSPYYYWGQGTQVTVSS | high polyreactivity
QVQLVESGGGLVQAGGSLRLSCAASGRTYRRYAMGWYRQAPGKERELVASISRTGGSTYYADAVKRRYTISRDNAKNTVYLQMNSLKPVDTAVYYCNAGPSVGWYNYWGQGTQVSVSS | high polyreactivity
QVQLVETGGGLVQAGGSLRLSCAASGRIFWWYAMGWYRQAPGKERELVAAISTGSRTYYADSVKGRFTISRDNAKNTVYLQMNSLKPEDTAVYYCVADGLYSVSRSSIFEYWGQGTQVTVSS | low polyreactivity
QVQLVESGGGLVQAGGSLRLSCAASGSIFLVNDMGWYRQAPGKERELVAAISYSGDSTYYADSVKGRFTISRDNAKNTVYLQMNSLKPEDTAVYYCAADVFIISYVAAWHVRIDEFEWGQGTQVTVSS | low polyreactivity
QVQLVESGGGLVQAGGSLRLSCAASGRIFQSNVMGWYRQAPGKERELVAGISTSGGSTYYADSVKGRFTISRDYAKNTVYLQMNSLKPEDTAVYYCAKDPSAVKVPYGYPVIKKTYNSWGQGTQVTVSS | low polyreactivity
QVQLVESGGGLVQAGGSLRLSCAASGRIFYWYARGWYRQAPGKERELVASISRRAGSTYYADSVKGRFTISRDNAKNTVYLQMHSLKPEDTAVYYCAAVGRFDRVFDYDYWGQGTQVTVSS | high polyreactivity
QVQLVESGGGLVQAGGSLRLSCAASGNTCYQYAMGWYRQAPGKERELVAAISSSGGSTYYADSVKGRFTISRDNAQNTVYLQMNSLKTEDTAVYYCATDKWYGYYYWGQGTQVTVSS | low polyreactivity
QVQLVESGGGLVQAGGSLRLSCAASGSIFYFNPMGWYRPAPGKERELVAAISWSGRTYYADSVKGRFTISRDNAKKTVYLQMNSLKPEDTAVYYCNAAYHYYGKYDYWGQGTQVTVSS | high polyreactivity
